# Assay: yeast display, Sf9 membrane polyspecificity reagent, FACS + sequencing; frameworks hold sequencing errors
# Outline: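 In a synthetic yeast display library (Saccharomyces cerevisiae BJ5465), nanobody expression was induced with galactose for 36–48 hours. FACS gates were set low and high (top ~1%) using anti-HA fluorescence for expression and streptavidin fluorescence for binding of the Sf9 membrane reagent. Each polyreactivity label is drawn from the gate of origin.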
row,Sequence,polyreactivity (PSR sort gate)
1,QVQLVESGVGLVQAGGSLRLSCAASGNIFTTYAMGWYRQAPGKERELVAAISRTGGRTSYADSVKGRFTISRDNAKNTVYLQMNSLKPEDTAVYYCAAVPTVRPSAPRARILSDYWGQGTQVTVSS,high polyreactivity
2,QVQLVESAGGLVQAGGSLRLICAASVFTFYYYTMGWYRPAPGKERELVAGISGTGGSTYYADSVKGRFTISRDNAKNTVYLQMNSLKPEDTAVYYCAAGPWYWGQGTQVTVSS,low polyreactivity
3,QVQHVESGGGLVQAGGSLRLSCAASGNTFSANAMGWYRQAPVKEREFVASITWSGGSTYYADSVKGRFTFSRDNAKNTVYLQMNSLKPEDTAVYYCAAESWFKYDYWGQGTQVTVSS,low polyreactivity
4,QVQLVESGGGLVQAGGSLRLSCAASGFIFRQYAMGWYRQAPGKERELVAAISTGGGRTYYADSVKGRFTISRDNAKNTVYLQMNSLKPEDTAVYYCAVYYYKTYDYWGQGTQVTVSS,high polyreactivity
5,QGQLVESGGGLVQAGGSLRLSCAASGRTFTAYAMGWYRQAPRKERELVASISSGSSTYYADSVKGRFTISRDNAKYTVYLQMNSLKPEDTAVYYCAARDGYRYYKGKRMGYWGQGTQVTVSS,high polyreactivity
6,QVQLQESGGGLVQAGGSLRLSCAASGSISAVGAMGWYRQAPGKEREFAASVNWGTNTNYADSVKGRFTISRDNAKNTLYLQMNSLKPEDTAVYYCAVLPDWETRHEYWGHGTQVTVSS,low polyreactivity
7,QVQLVESGGGLVQAGGSLRLTCAASGSTFQHYAMGWYRQAPGKEMELVAAITNTGGSTYYADSVKGRFTISRDNAKNTVYLQMNSLKPEDNAVYYCATVARRYGYPGYYWGQGTQVTVSS,low polyreactivity
8,QVQLVESGGGLVQAGGSLRLSCAASGFTFGLYTMGWYRQAPGKERELVAAITSSGARTYYADSVKGRFTISRDNAKNTVNLQMNSLKPEDTAVYYCNAGKRGSTYYYWGQGTQVTVSS,high polyreactivity
9,QLQLVESGGGLVQAGGSLRLICAASGLIFFWYTMGWYRQAPGKDRELVAAIDSGGSTYYADSVKGRFTNSRDNAKYTVYLEMISLKPEDTAVYYCAADSFYLYIEYYYWGQGTQVTVSS,high polyreactivity
10,QVQLVESGGGLVQAGGSLRLSCAASGSTFYRNAMGWYRQARGKERELVAAISRGGSTYYADSVKGRFTISRDNAKNTVYLQMNSLKPEDTAVYYCNTDVNYAGYGWYYYWGQGTQVTVSS,high polyreactivity
11,QVQLVESGGGLVQAGGSLRLSCAASGITFLYYAMGRYRPAPGKERELVAAITGDGSTTYADSVKGRFTISRDNAKNTVYLQMNSLKPEDTAGYYCAADDQYYGDGFWGQGTQLTVSS,high polyreactivity
12,QVQLVESGGGLVQAGGSLRLSCAASGSTFIYYVKGWYRQAPGNERELVAAISGRTGSTYYADSVKGRFTISRDNAKNTVYLQMNSLTPEDTAVYYCAKRGFLYWDHVSGFYRYDYWGQGTQVTVSS,low polyreactivity
13,QVQLVESGGGLVQAGGSLRLSCAASGFTFFKYAMGWYRQAPGKERELVAAITRNGGRTYYADSVKGRFTISRDNAKNTVYLQMNSLKPEDTAVYYCAAVQYRYGGMDYWGQGTQVTVSS,high polyreactivity
14,QVQLVESGGGLVQAGGSLRLSCAASGITFYGYAMGWSRPAPGKERELVAVITSSGSSTYYADSVKGRFTISRDKAKNTVYVQMNSLKPEDTAVYDCNARPGRRSLRSRTYDYWGQGTQVTVSS,high polyreactivity
15,QVQHVESGGGLVQAGGSLRLSCAASGFIFWDYAMGWYRQAPGKERELVAAISDSGGDTYYADSVKGRFTISRDNAKNTVYLQMNSLIPEDTAVYYCAAETYCGGYPVTYDYWGQGTQVTVSS,low polyreactivity
16,QVQLVESGGGLVQAGGSLRLSCAASGYIFVYNSMGWYRPAPGKERELVAVINYSGSSTYYADSVKGRFPISRDNAKNTVYLQMNSLKPEDTAVYYCNALRRESLEDEYWGQGTQVTVSS,high polyreactivity
17,QVQLVESVGGLVQAGGSLRLSCAASGITFNEYAMGWYRQATGKARELVAAISRRGGSTYYADSVKGRFTISRDNAKNTVYLQMYSLKPEDTAVYYCAADPGTPRYQFLWYGYWGQGTQVTVSS,low polyreactivity
18,QDQLVESGGGLVQAGGSLRLSCAASGYIFSTYAMGWYRQAPGKERELVAAISSSGGSTYYADSVKGRFTISRDNAKNTVFLQMNSLKPEDTAVYYCYAGKHVRQRYDHWGQGTQVSVSS,high polyreactivity
19,QVQLVESGGGLVQAGGSLRLSCAASGSIFANYAMGWYRQAPGKERELVAAISRGGGTTYYADSVKGRFTISRDNAKNTVYLQMNSLKPEDTAVYYCAAARRYATQFHYDSWGQGTQVTVSS,high polyreactivity
20,QVQLVESGGGLVQAGGSLRLSCAASGSTFRQYAMGWYRQAPGKERELVAAITWRGDNTYYADSVKGRFTISRDNAKNTVYLQMNSLKPEDTAVYYCAARWSYRLYWGYGYWGQGTQVTVSS,low polyreactivity
21,QVQLVESGGGLVQAGGSLRLSCAASGRIFNHNDMGWYRQAPGKERELVAAIDGSDSSTYYADSVKGRFTISRDNAKNTVYLQMNSLKTEDTAVYYCNADTNWLYTTGKYDYWGQGTQVTVSS,low polyreactivity

row,Sequence,polyreactivity (PSR sort gate)
1,QVQLVESGGGLVQAGGSLRLSCAASGNIFRNNAMGWYRQAPGKERELVAAISRGGSTYYADSVKGRFTISRDNAKNTVYLQMNSLKPEDTAVYYCNKYSSRAYNYWGQGTHVTVSS,high polyreactivity
2,QVQLVESGGGLVQAGGSLRLSCAASGYTFKSYALGWYRQAPGKERELVASISNDGSTNYADSVKGRFTISRDNAKNTVYLQMNSLKPEDTAVYYCNADFYDAPSQWARTGFDYWGQGTQVTVSS,low polyreactivity
3,QVQLVESGGGLVQAGGSLRLSCAASGSTFGYYAMGWYRQAPGKERELVAAITWSGGSTSYADSVKGRFTISRENAKNSVYLQMNSLKPEDTAVYYCAAQYKKGRGAKRTYYGGWLEYCGQGTQVTVSS,low polyreactivity
4,QVHLVESVGGLVQAGGSLRLSCAASGRTFPYNAMGWYIQAPGKERELVAVISKGGGRTYYADSVKGRFTISLDNAKNTVYLQMNSLKPEDTAVYYCDARYDGSSDYRLNYWGQGTQVTVSS,high polyreactivity
5,QVHLVESGGGLVQAGGSLRLSCAASGRIFRPYAMGWYRQAPGKERELVAGLTSSGGSTYYADSVKGRFTISRDNAKNTVYLHMNSRKPEDTALYYCAAGPDYGWRRYDYWGQGTQVTVSS,low polyreactivity
6,QVQLVESGGGLVQAGGSLRLSCAASGLIFVPYAMGWYRQAPGKERELVATISARGASTYYADSVKGRFTISRDNAKNTVYLQMNSLKPEDTAVYYCATRNYGRASYDYWGQGTQVTVSS,high polyreactivity
7,QVQLVESGGGLVQAGGSLRLSCAASGRIFVWYDMGWYRQAPGKERELVAAISWGGGTNYADSVKGRFTISRDNAKNTVYLQMNSLKPEDTAVYYCAAAPSYYYFVRYVPSDIEGYWGQGTQVTVSS,low polyreactivity
8,QVQLVESGGGLVQAGGSLRLSCAASGSTFYSYVMGGYRQAPGKERELVAAISKRGTSTYYADSVKGRFTISRDNAKYTVYLQMNSLKPEDNAVYYCAARPIVGVYPDIYDYWGHGTQVTVSS,low polyreactivity
9,QVQLVESGGGLVQAGGSLRLSCAASGRIVGYYAMGWYRQAPGKERELVATITFGGGSTYYADTVKGRFTISRDIAKNTVYLQMNSLKPEDTAVYYCAAEIYPLGSLRLGPGEYDHWGQGTQVTVSS,low polyreactivity
10,QVQLVESGGGLVQAGGSLRLSCAASGRTFYIYAMGWYRQAPGKERELVAAITSVGSTNYADSVKGRFTISRDNAKNTVYLQMNSLKPEDTAVYYCAAASTEGTSGDYDYWGQGTQVTVSS,low polyreactivity
11,QVQLVEAGGCLVQAGGSLRLSCAASGRIFRFYTMGWYRQAPGNERELVAAIRYSSVSTYYADSVKGRFTISRDNAKNTVYLQMNSLKPEDTAVYYCDAVHRSYVKTYNYWGLGTQVTVSS,high polyreactivity
12,QVQLVESGGGLVQAGGSLRLSCAASGRIFKRYAKGWYRQAPGKERELVAAISGSGGSTSYADSVKGRFTLSRDNAKNTVYLQMNSLKPEDTAVYYCNTTPRFIRSIGQGNYWVQGTQVTVSS,high polyreactivity
13,HVQLVESGGGLVQAGGSLRLSCAASGGTFGRYARGWYRQAPGKERELVAAISSGGSTNYADSVKGRFTISRDNAKYTVYLLMNSLKPEDTAVYYCAADGPSGVRQYDYWGQGTQVTVSS,low polyreactivity
14,QVQLVESGGGLVQAGGSLRLSCAASGSTFSIYAMGWSRQAPGKERELVAAITGTVGSTYYADSVKGRFTISRDNAKNTVYLQMNSLNPEDTAVYYCAARQVNYDYDYWGQGTQVTVSS,low polyreactivity
15,QVQLQESGGGLEQAGVSLRLSCAASGYISDIGTMGWYRQAPGKEREFVATIVVGSTTNYADSVKGRFTISRDNAKNTVYLQPESGRYRGVLLRGWLLAVGIFTYWGQGTQETVSS,low polyreactivity
16,QVQLVESGGGLVQEGGSLRLSCAASGSTFDSNAMGWYRQAPGTERELVAAIDWSGGSTYYADSVKGRFTISRDNAKNSVYLQMNSLKPEDTAVYYCAADDYSSNYGDFDYWGQGTQVTVSS,low polyreactivity
17,QVQLVESGGGLVQAGGSLRLSCAASGITFKWYAMGWYRQAPGKERELVAAISWSTGSTYYADSVKGRFTISRDNAKNTVYLQMNSLKPEDTSVYYCAARVKRPQTGYDRRYGYWGQGTQVTVSS,high polyreactivity
18,QVQLVESGGGLVQAGGSLRLSCAASGITFHVNAMGWYRQAPGKERELVARITTSGGSTSYADSVKGRFTISRDNAKNTVYLQMNSLKPEDTAVYYCAADLARYYSEYDYWGQGTQVTVSS,low polyreactivity
19,QVQLVESGGGLVQAGGSLRLSCAASGRIFTAYAMGWYRQAPGKERELVAAISSGDSTYYADSVKGRFTISRDNAKNTVYLQMNSLKPEDTAVYYCAAEGYLWGQSYNGLNYDSWGQGTQVTVSS,low polyreactivity
20,QVQLEESGGGLVQAGGSLRLSCAASGSTFVYNALGWNRQAPGKEREFVAVINWSGGRTYADSVKGRFTISRDNAKTTVYLQMNSLNPDETEVYYCNAERRSYRFALQYRRYDYWGEGTQVTVSS,high polyreactivity

# From the nanobody polyreactivity screen of Harvey et al. (2022)
